PMC9897667, “Identification of procathepsin L (pCTS-L)–neutralizing monoclonal antibodies to treat potentially lethal sepsis” (Science Advances, 2023)

Columns and labels:
Details in all cases: both partners purified
[1] = target: T1, human TLR4 (ECD-His Tag, residues 1 to 631) (human, UniProt O00206 24-631); assay: SPR; OpenSPR (Nicoya); TLR4 (residues 1 to 631) or RAGE extracellular domain (residues 1 to 344) immobilised on NTA sensor chip; pCTS-L applied as analyte at different concentrations; representative Kd
T1 construct: signal peptide in the construct; Toll-like receptor 4, human, extracellular domain, residues 1 to 631; also called Toll-like receptor 4; recombinant TLR4; source: bought: Sino Biological Inc
T1 sequence (O00206 24-631): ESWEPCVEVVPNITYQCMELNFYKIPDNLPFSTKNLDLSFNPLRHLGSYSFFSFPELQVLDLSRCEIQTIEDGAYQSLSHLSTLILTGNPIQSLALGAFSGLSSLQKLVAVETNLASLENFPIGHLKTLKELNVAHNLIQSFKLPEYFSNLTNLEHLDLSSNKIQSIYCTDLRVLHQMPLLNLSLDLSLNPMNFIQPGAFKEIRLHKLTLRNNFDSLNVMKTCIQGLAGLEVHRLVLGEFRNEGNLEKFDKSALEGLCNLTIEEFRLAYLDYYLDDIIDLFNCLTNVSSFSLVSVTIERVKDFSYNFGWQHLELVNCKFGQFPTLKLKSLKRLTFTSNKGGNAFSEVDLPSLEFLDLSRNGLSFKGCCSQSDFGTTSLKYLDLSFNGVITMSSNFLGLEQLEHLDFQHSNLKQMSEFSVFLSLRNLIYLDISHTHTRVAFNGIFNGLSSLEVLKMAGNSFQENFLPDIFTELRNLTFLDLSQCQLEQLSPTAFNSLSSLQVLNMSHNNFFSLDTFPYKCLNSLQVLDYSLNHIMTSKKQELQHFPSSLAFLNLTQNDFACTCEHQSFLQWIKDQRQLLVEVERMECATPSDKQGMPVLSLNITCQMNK

[2] = target: T2, extracellular domain of human RAGE (residues 1 to 344) (human, UniProt Q15109 23-344); assay: as above
T2 construct: signal peptide in the construct; receptor for advanced glycation end products, human, extracellular domain, residues 1 to 344; also called receptor for advanced glycation end products; recombinant RAGE; source: bought: Sino Biological Inc
T2 sequence (Q15109 23-344): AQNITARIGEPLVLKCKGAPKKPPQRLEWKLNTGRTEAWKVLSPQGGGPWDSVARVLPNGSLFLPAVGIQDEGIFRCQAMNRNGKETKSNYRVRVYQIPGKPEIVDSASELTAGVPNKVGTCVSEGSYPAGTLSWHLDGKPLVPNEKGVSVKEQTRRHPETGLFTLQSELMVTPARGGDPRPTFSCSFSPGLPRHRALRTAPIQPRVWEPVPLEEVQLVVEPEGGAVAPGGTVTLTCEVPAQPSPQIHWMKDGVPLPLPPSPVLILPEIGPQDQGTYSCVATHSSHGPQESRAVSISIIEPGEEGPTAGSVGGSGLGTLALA

[3] = target: T1, human TLR4 (ECD-His Tag, residues 1 to …); assay: SPR; OpenSPR (Nicoya); human pCTS-L immobilised on NTA sensor chip; human TLR4 or RAGE applied as analyte at various concentrations; Kd estimated with TraceDrawer
[4] = target: T2, extracellular domain of human RAGE …; assay: as above
[5] = target: T1, human TLR4 (ECD-His Tag, residues 1 to …); assay: SPR; OpenSPR, series of Fig. 10A; pCTS-L immobilised on NTA sensor chip; TLR4 or RAGE as analyte; reference values without mAb20 (not told whether with c-mAb preincubated or with no antibody)
[6] = target: T2, extracellular domain of human RAGE …; assay: as above

Kd [1]: 64.4 nM
Kd [2]: 3 nM
Kd [3]: 20.2 nM
Kd [4]: 3.5 nM
Kd [5]: 20.3 ± 2.3 nM
Kd [6]: 3.1 ± 0.4 nM
B1: recombinant human procathepsin L (pCTS-L) (natural protein, UniProt P07711 18-333, looked up)
chain: TLTFDHSLEAQWTKWKAMHNRLYGMNEEGWRRAVWEKNMKMIELHNQEYREGKHSFTMAMNAFGDMTSEEFRQVMNGFQNRKPRKGKVFQEPLFYEAPRSVDWREKGYVTPVKNQGQCGSCWAFSATGALEGQMFRKTGRLISLSEQNLVDCSGPQGNEGCNGGLMDYAFQYVQDNGGLDSEESYPYEATEESCKYNPKYSVANDTGFVDIPKQEKALMKAVATVGPISVAIDAGHESFLFYKEGIYFEPDCSSEDMDHGVLVVGYGFESTESDNNKYWLVKNSWGEEWGMGGYVKMAKDRRNHCGIASAASYPTV
notes: procathepsin L (pCTS-L), human, recombinant; A HEK293-made pCTS-L is named only for stimulating PBMCs; also called proCTS-L; human pCTS-L; source: recombinant, highly purified
